T1: CD70 (UniProt P32970)
T1 sequence (looked up): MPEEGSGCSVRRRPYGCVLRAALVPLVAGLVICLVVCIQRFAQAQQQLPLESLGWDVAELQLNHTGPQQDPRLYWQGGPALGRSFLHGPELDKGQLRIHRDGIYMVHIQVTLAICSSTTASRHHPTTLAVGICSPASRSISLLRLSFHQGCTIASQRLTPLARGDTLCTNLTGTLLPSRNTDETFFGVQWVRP


How the values were obtained:
Assay in all cases: cell-based or functional assay
CD48 = CD48 (UniProt P09326)
NTB-A = NTB-A (UniProt Q96DU3)
CD70 = molecular target: T1, CD70

Chain of NTB-A (Q96DU3 22-332 limits assumed): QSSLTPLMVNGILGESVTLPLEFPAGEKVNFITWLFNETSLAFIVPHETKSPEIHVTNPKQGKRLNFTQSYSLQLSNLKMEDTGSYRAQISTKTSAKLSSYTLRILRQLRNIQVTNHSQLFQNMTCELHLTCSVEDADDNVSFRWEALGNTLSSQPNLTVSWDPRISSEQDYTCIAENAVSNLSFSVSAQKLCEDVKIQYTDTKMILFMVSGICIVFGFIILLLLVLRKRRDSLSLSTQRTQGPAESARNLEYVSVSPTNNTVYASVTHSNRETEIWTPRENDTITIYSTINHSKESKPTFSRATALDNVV
Chain of CD48 (P09326 27-220 limits assumed): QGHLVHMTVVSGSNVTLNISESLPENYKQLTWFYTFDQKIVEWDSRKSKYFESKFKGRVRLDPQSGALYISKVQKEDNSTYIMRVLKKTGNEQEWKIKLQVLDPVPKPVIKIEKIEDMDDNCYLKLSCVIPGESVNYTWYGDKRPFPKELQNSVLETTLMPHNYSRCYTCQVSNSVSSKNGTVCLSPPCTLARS

Row | IC50 of cell growth (CellTiter-Glo, 96 h), EJM cells (CD48) | IC50 of cell growth (CellTiter-Glo, 96 h), KMM-1 cells (CD48) | IC50 of cell growth (CellTiter-Glo, 96 h), MM.1R cells (CD48) | IC50 of cell growth (CellTiter-Glo, 96 h), NCI-H929 cells (CD48) | IC50 of cell growth (CellTiter-Glo, 96 h), U-266 cells (CD48) | percent cells remaining at highest concentration tested, EJM cells (CD48) | percent cells remaining at highest concentration tested, KMM-1 cells (CD48) | percent cells remaining at highest concentration tested, MM.1R cells (CD48) | percent cells remaining at highest concentration tested, NCI-H929 cells (CD48) | IC50 of cell growth (CellTiter-Glo, 96 h), EJM cells (NTB-A) | IC50 of cell growth (CellTiter-Glo, 96 h), KMM-1 cells (NTB-A) | IC50 of cell growth (CellTiter-Glo, 96 h), MM.1R cells (NTB-A) | IC50 of cell growth (CellTiter-Glo, 96 h), NCI-H929 cells (NTB-A) | IC50 of cell growth (CellTiter-Glo, 96 h), U-266 cells (NTB-A) | percent cells remaining at highest concentration tested, KMM-1 cells (NTB-A) | IC50 of cell growth (CellTiter-Glo, 96 h), 786-O cells (CD70) | IC50 of cell growth (CellTiter-Glo, 96 h), Caki-1 cells (CD70) | IC50 of cell growth (CellTiter-Glo, 96 h), Raji cells (CD70) | IC50 of cell growth (CellTiter-Glo, 96 h), UM-RC-3 cells (CD70) | percent cells remaining at highest concentration tested, 786-O cells (CD70) | Molecule | also measured
1 | 0.053 mg/L | 0.018 mg/L | 0.004 mg/L | 0.006 mg/L | 0.017 mg/L | 27% | 16% | 1% | 2% |  |  |  |  |  |  |  |  |  |  |  | Ag4-Ex_4-1: hMEM102 anti-CD48 antibody conjugated to MP-PEG4-Val-Lys-Gly-7-MAD-MDCPT, DAR=8 | percent cells remaining at highest concentration tested, U-266 cells (CD48): 38%
2 | 2.79 mg/L | 0.075 mg/L | 0.009 mg/L | 0.009 mg/L | > 10 mg/L | 0% | 34% | 0% | 3% |  |  |  |  |  |  |  |  |  |  |  | Ag4-Ex_8-1a: hMEM102 anti-CD48 antibody conjugated to MC-GGFG-NHCH2-DXd(1), DAR=8 | 
3 |  |  |  |  |  |  |  |  |  | 0.15 mg/L | 0.177 mg/L | 0.005 mg/L | 0.08 mg/L | 0.097 mg/L | 16% |  |  |  |  |  | Ag5-Ex_4-1: h20F3 anti-NTB-A antibody conjugated to MP-PEG4-Val-Lys-Gly-7-MAD-MDCPT, DAR=8 | percent cells remaining at highest concentration tested, EJM cells (NTB-A): 31%; percent cells remaining at highest concentration tested, MM.1R cells (NTB-A): 0%; percent cells remaining at highest concentration tested, NCI-H929 cells (NTB-A): 2%; percent cells remaining at highest concentration tested, U-266 cells (NTB-A): 28%
4 |  |  |  |  |  |  |  |  |  | 7.19 mg/L | 5.29 mg/L | 0.177 mg/L | 2.93 mg/L | > 10 mg/L | 45% |  |  |  |  |  | Ag5-Ex_8-1a: h20F3 anti-NTB-A antibody conjugated to MC-GGFG-NHCH2-DXd(1), DAR=8 | 
5 |  |  |  |  |  |  |  |  |  |  |  |  |  |  |  | 0.037 mg/L | 0.036 mg/L | 1.13 mg/L | 0.016 mg/L | 18% | Ag3-Ex_4-1: h1F6 anti-CD70 antibody conjugated to MP-PEG4-Val-Lys-Gly-7-MAD-MDCPT, DAR=8 (antibody, INN chains, looked up, V domains shown, MP-PEG4-Val-Lys-Gly-MDCPT conjugate, DAR 8) VH: QVQLVQSGAEVKKPGASVKVSCKASGYTFTNYGMNWVRQAPGQGLKWMGWINTYTGEPTYADAFKGRVTMTRDTSISTAYMELSRLRSDDTAVYYCARDYGDYGMDYWGQGTTVTVSS VL: DIVMTQSPDSLAVSLGERATINCRASKSVSTSGYSFMHWYQQKPGQPPKLLIYLASNLESGVPDRFSGSGSGTDFTLTISSLQAEDVAVYYCQHSREVPWTFGQGTKVEIK | percent cells remaining at highest concentration tested, Caki-1 cells (CD70): 24%; percent cells remaining at highest concentration tested, Raji cells (CD70): 45%; percent cells remaining at highest concentration tested, UM-RC-3 cells (CD70): 30%
6 |  |  |  |  |  |  |  |  |  |  |  |  |  |  |  | > 10 mg/L | > 10 mg/L | 5.56 mg/L | 0.065 mg/L | 54% | Ag3-Ex_8-1a: h1F6 anti-CD70 antibody conjugated to MC-GGFG-NHCH2-DXd(1), DAR=8 (antibody, INN chains, looked up, V domains shown, MC-GGFG-DXd conjugate, DAR 8) VH: QVQLVQSGAEVKKPGASVKVSCKASGYTFTNYGMNWVRQAPGQGLKWMGWINTYTGEPTYADAFKGRVTMTRDTSISTAYMELSRLRSDDTAVYYCARDYGDYGMDYWGQGTTVTVSS VL: DIVMTQSPDSLAVSLGERATINCRASKSVSTSGYSFMHWYQQKPGQPPKLLIYLASNLESGVPDRFSGSGSGTDFTLTISSLQAEDVAVYYCQHSREVPWTFGQGTKVEIK | percent cells remaining at highest concentration tested, Caki-1 cells (CD70): 68%; percent cells remaining at highest concentration tested, UM-RC-3 cells (CD70): 40%

From patent publication US20250135018A1
